Source: patent publication US20200216522A1 (published 2020)

B1: chimeric IgG clone 1A5 (antibody, V domains shown)
VH: EVQLQQSGAELVRPGASVKLSCTASGFNIKDSLIHWVKQRPEQGLEWIGWIDPEDGETKYAPKFQDKATKTADTSSNTAYLQLSSLTSEDTAIYYCASGEWDYWGQGTSVTVSS
VL: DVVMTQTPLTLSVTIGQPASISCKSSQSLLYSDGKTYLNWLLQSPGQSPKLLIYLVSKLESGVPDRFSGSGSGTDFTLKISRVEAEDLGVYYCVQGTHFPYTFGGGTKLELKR
B2: chimeric IgG clone 1G7 (antibody, V domains shown)
VH: EVQLQQSGAEVVRPGASVKLSCTTSGFNIKDSLMHWLKQRPEQGLEWIGWIDPEDGETKYAPKFQDKATITADTSSNTAYLQLSSLTSGDTAIYYCARRDWEGPWGQGTLVTVSA
VL: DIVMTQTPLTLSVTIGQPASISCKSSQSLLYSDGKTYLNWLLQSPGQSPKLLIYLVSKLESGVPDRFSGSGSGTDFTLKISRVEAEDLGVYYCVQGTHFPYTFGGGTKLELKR

Biological target: full-length human Tau (Tau441; 2N4R), recombinant (UniProt P10636 1-758)
Sequence (P10636 other isoform, or with tags, fused parts or gaps): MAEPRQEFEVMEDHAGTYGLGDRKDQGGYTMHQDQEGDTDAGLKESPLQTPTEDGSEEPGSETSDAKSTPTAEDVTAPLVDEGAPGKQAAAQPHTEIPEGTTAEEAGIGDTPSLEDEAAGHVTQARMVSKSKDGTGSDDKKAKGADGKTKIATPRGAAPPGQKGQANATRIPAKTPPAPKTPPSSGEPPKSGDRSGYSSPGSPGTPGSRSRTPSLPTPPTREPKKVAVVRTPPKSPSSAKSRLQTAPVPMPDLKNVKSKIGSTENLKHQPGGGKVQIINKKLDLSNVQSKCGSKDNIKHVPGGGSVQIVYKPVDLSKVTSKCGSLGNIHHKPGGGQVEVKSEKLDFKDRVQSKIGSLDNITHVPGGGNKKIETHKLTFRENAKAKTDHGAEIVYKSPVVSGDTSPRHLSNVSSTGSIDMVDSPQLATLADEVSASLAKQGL
Experiment: SPR (Biacore); 25°C

| Binder | Kd [pM] |
| --- | --- |
| B1 | 155 |
| B2 | 94.6 |
